For two substances, Ki and Kd results are on record in paper PMC11871066, “Structure-based discovery of hydrocarbon-stapled paxillin peptides that block FAK scaffolding in cancer” (Nature Communications, 2025).

As a reminder, the Ki is a measure of affinity in units of concentration, obtained from inhibition or displacement. For orientation: Kd means the concentration at which binding is half-saturated.

Assay [1] addresses Recombinant FAK FAT protein (fluorescence polarization assay) (human) (UniProt Q05397). The experiment in a line: FP.
The target in assay [2] is Biotinylated AviTag FAK FAT protein (UniProt Q05397). The experiment in a line: SPR. Conditions: left panel, two-site binding model, peptide 200 µM to 49 nM, n = 5, X = olefinic amino acids joined by an i,i + 7 hydrocarbon staple.
Chain of Biotinylated AviTag FAK FAT protein (Q05397 whole entry): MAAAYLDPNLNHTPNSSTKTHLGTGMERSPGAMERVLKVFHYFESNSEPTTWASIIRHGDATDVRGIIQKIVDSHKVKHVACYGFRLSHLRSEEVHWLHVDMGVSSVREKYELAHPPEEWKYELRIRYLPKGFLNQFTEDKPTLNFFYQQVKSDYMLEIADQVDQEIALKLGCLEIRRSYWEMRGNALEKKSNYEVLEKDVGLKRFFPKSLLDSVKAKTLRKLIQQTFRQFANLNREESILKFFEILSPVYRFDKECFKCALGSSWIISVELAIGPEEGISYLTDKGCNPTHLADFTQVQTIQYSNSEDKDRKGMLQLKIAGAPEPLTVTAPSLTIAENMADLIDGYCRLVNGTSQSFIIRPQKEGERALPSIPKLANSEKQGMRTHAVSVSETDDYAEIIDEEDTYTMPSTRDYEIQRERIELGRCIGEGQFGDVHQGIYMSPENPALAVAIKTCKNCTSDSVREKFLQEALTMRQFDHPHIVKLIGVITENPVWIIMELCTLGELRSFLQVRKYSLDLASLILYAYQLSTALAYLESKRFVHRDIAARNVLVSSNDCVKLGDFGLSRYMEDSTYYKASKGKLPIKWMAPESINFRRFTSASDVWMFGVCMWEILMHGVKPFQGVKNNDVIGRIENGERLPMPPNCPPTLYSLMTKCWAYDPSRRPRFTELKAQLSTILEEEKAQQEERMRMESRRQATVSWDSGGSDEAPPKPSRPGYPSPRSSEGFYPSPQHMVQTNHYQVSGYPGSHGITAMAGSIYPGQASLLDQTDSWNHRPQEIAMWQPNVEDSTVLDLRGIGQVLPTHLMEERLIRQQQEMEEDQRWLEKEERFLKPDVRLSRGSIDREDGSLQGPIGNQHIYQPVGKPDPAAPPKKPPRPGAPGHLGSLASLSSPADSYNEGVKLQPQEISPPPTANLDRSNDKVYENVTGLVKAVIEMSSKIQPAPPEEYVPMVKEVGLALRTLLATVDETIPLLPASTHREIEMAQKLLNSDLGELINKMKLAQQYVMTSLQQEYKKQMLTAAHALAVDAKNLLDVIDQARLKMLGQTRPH

Chain of Recombinant FAK FAT protein (fluorescence polarization assay) (human) (Q05397 whole entry): as above
Chain of Negative control peptide 2014 (1907 with L145E and L152E) (P49023 whole entry L145E/L152E, looked up, tested part not stated): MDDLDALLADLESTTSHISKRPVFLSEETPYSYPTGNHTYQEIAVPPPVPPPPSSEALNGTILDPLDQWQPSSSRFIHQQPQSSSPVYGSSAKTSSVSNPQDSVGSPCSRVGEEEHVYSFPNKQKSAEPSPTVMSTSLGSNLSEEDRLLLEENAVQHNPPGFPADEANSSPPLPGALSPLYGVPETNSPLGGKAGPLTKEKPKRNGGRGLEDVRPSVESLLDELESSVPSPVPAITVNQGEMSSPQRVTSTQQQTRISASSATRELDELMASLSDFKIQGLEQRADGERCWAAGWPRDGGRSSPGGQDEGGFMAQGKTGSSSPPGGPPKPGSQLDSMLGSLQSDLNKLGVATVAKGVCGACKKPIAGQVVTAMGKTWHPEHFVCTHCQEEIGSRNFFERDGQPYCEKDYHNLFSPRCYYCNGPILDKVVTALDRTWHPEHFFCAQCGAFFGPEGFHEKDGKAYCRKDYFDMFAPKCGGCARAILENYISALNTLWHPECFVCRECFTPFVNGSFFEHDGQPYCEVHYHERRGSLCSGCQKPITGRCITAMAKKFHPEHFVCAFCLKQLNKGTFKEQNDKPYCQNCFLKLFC

Consider “Negative control peptide 2014 (1907 with L145E and L152E) (from UniProt P49023 141-153)”, for which, in assay [1], the Ki was > 1250 µM.
Turning to “Paxillin LD2 peptide (141-…-153) S143X; L150X”, the Kd was 0.8 µM in assay [2] (KD1) and 8.7 µM in assay [2] (KD2).
